T1: human Glutaminase Interacting Protein (GIP) (human, UniProt O14907 1-124)
T1 sequence (looked up): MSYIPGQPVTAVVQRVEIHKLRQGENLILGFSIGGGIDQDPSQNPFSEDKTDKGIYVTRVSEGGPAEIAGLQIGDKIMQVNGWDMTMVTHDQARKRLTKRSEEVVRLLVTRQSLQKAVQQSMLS

For one test, the target named is T1, human Glutaminase Interacting Protein …. Nature of the test: NMR titration.
With ESSVDLLDG [ESSVDLLDG peptide (synthetic)], the binding result was “binds”.

Consider GSGTDLDAS [GSGTDLDAS peptide (synthetic)], for which the binding result is listed as “binds”.

On to GSSLDVTDN [GSSLDVTDN peptide (synthetic)], for which the binding result is given as “binds”.

Turning to ASSSVDDMA [ASSSVDDMA peptide (synthetic)], the binding result is on record as “binds”.

Another test shares this target. Put plainly: phage display selection.
In the case of GTNLDGNGD [phage clone displaying GTNLDGNGD], the binding result is listed as “binds”.

In the case of ESSVDLLDG [phage clone displaying ESSVDLLDG], the binding result is on record as “binds”.

In the case of GSSLDVTSE [phage clone displaying GSSLDVTSE], the binding result is given as “binds”.

Consider VSNLDTTND [phage clone displaying VSNLDTTND], for which the binding result is listed as “binds”.

Turning to GSSVDLVGD [phage clone displaying GSSVDLVGD], the binding result is reported as “binds”.

Turning to DGNLDSYDN [phage clone displaying DGNLDSYDN], the binding result was “binds”.

Take GGNLDVNVG [phage clone displaying GGNLDVNVG]: the binding result was “binds”.

For ASSSVDDMA [phage clone displaying ASSSVDDMA], the binding result is given as “binds”.

Turning to DSNLDVSVE [phage clone displaying DSNLDVSVE], the binding result is given as “binds”.

For GSSLDVTDN [phage clone displaying GSSLDVTDN], the binding result is “binds”.

For the molecule GSSSVDVDG [phage clone displaying GSSSVDVDG], the binding result was “binds”.

AISSVDSMG [phage clone displaying AISSVDSMG]: the binding result is recorded as “binds”.

For GSGTDLDAS [phage clone displaying GSGTDLDAS], the binding result was “binds”.

AYESSVDDN [phage clone displaying AYESSVDDN]: the binding result is “binds”.

For the molecule GSMNLDVQS [phage clone displaying GSMNLDVQS], the binding result was “binds”.

In the case of GYETSLDSN [phage clone displaying GYETSLDSN], the binding result is reported as “binds”.

Regarding ESSVDMIGD [phage clone displaying ESSVDMIGD], the binding result is recorded as “binds”.
